Earlier results on 1 substance are cited in PMC7563123.

Data set [1] addresses Aβ1–40 Aβ1-40 (Homo sapiens) (UniProt P05067). The data set is described as follows: ligand binding assay.
For data set [2], the target named is Aβ1–42 Aβ1-42 (Homo sapiens) (UniProt P05067). The data set is described as follows: ligand binding assay.
Aβ1–42 Aβ1-42 (Homo sapiens), sequence (P05067 1-42): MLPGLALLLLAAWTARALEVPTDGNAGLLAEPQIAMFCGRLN

17β-HSD10, sequence (Q99714 2-261): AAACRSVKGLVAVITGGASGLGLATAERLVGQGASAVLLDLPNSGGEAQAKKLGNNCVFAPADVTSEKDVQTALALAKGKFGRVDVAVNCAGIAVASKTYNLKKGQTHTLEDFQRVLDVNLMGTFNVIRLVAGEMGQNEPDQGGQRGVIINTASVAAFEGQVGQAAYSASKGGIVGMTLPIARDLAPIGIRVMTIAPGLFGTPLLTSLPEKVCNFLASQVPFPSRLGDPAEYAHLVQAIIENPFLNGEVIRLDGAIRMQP
Aβ1–40 Aβ1-40 (Homo sapiens), sequence (P05067 1-40): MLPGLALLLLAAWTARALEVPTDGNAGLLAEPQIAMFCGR

For the substance 17β-HSD10 (from UniProt Q99714), the values for the Kd in data set [1] and in data set [2] were 38.4 nM and 55.8 nM, respectively.
